{"source": "paper PMC4271737", "key": {"[1]": {"molecular_target": "human angiotensin II type 1 receptor with a C-terminal GFP-H10 tag (AT1R-GFP-H10) (human) (UniProt P30556)", "experiment": "radioligand binding; non-solubilised membranes (briefly sonicated cells); 0.5 nM [125I]Sar1 with 100 nM unlabelled Sar1; bound and free ligand separated by filtration through 96-well glass fibre filter plates without polyethyleneimine; background from parental or uninfected cells"}, "[2]": {"molecular_target": "human angiotensin II type 1 receptor with a C-terminal decahistidine tag (AT1R-H10) (human) (UniProt P30556)", "experiment": "radioligand binding; non-solubilised membranes (briefly sonicated cells); 0.5 nM [125I]Sar1 with 100 nM unlabelled Sar1; bound and free ligand separated by filtration through 96-well glass fibre filter plates without polyethyleneimine; background from parental or uninfected cells"}}}
{"substance": "[^125I]sar^1-Ile^8-angiotensin II (peptide)", "values": [{"measurement": "specific binding in membranes (dpm, set to 100%)", "setting": "[1]", "result": 12000, "unit": "dpm"}, {"measurement": "specific binding in membranes (dpm, set to 100%)", "setting": "[2]", "result": 1400, "unit": "dpm"}]}
